Data: patent US20240226321A1 (ANJARIUM BIOSCIENCES, published 2024)

Target: T1, FcRn of the Lumit FcRn Binding Immunoassay (Promega) (UniProt P55899 24-297; P61769 21-119, limits assumed)
T1 construct: Bought kit reagent ('split FcRn/Tracer'); also called split FcRn
Assay: Lumit FcRn Binding Immunoassay (Promega), serial dilution of EVs competing with the kit's Tracer for FcRn, luminescence as fraction of max signal
Protocol: A Lumit™ FcRn Binding Immunoassay (Promega) assay was performed with purified EVs described in Example 1 and native Hek293 EVs. […] Detection reagent was added and luminescence was detected on a plate reader.

IC50 (read off the curve): ~200 pM
B1: targeting monobody-linker1-modified monomeric Fc-linker2-EphB2 scaffold-linker3-turboluc fusion protein, displayed on purified EVs (Fc fusion)
chain: VSDVPRDLEVVAATPTSLLISWYYPFCAFYYRITYGETGGNSPVQEFTVPRSPDTATISGLKPGVDYTITVYAVTCLGSYSRPISINYRTGGGGSGGGGSGGAPEAAGGPSVFLFPPKPKDTLMISRTPEVTCVVVDVSHEDPEVKFNWYVDGVEVHNAKTKPREEQYNSTYRVVSVLTVLHQDWLNGKEYKCKVSNKALGAPIEKTISKAKGQPREPQVYTKPPSRDELTKNQVSLSCLVKGFYPSDIAVEWESNGQPENNYKTTVPVLDSDGSFRLASYLTVDKSRWQQGNVFSCSVMHEALHNHYTQKSLSLSPGGGSGGGSGGGSGGGSRKCPRIIQNGAIFQETLSGAESTSLVAARGSCIANAEEVDVPIKLYCNGDGEWLVPIGRCMCKAGFEAVENGTVCRGCPSGTFKANQGDEACTHCPINSRTTSEGATNCVCRNGYYRADLDPLDMPCTTIPSAPQAVISSVNETSLMLEWTPPRDSGGREDAVYNIICKSCGSGRGACTRCGDNVQYAPRQLGLTEPRIYASDLLAHTQYTFEIQAVNGVTDQSPFSPQFASVNITTNQAAPSAVSIMHQVSRTVDSITLSWSQPDQPNGVILDYELQYYEKELSEYNATAIKSPTNTVTVQGLKAGAIYVFQVRARTVAGYGRYSGKMYFQTMTEAEYQTEIQEKLPLIIGSSAAGLVFLIAVVVISIVCNRRGFERADSEYTDKLQHYTSGHMTPGMKIYIDPFTYEDPNEAVREFAKEIDISCVKIEQVIGAGEFGEVCSGHLKLPGKREIFVAIKTLKSGYTEKQRRDFLSEASIMGQFDHPNVIHLEGVVTKSTPVMIITEFMENGSLDSFLRQNDGQFTVIQLVGMLRGIAAGMKYLADMNYVHRDLAARNILVNSNLVCKVSDFGLSRFLEDDTSDPTYTSALGGKIPIRWTAPEAIQYRKFTSASDVWSYGIVMWEVMSFGERPYWDMTNQDVINAIEQDYRLPPPMDCPSALHQLMLDCWQKDRNHRPKFGQIVNTLDKMIRNPNSLKAMAPLSSGINLPLGGGEAEAERGKLPGKKLPLEVLIELEANARKAGCTRGCLICLSKIKCTAKMKKYIPGRCADYGGDKKTGQAGIVGAIVDIPEISGFKEMEPMEQFIAQVDRCADCTTGCLKGLANVKCSDLLKKWLPGRCATFADKIQSEVDNIKGLAGD
notes: also called EVs expressing the modified Fc domain
